Source: patent publication US20230071765A1, “COMPOSITIONS HAVING THIOREDOXIN ACTIVITY AND RELATED METHODS” (ORPRO THERAPEUTICS, INC., priority 2020, published 2023)

Key:
[1] = DTNB assay of reduction state (free SH groups); assay type: physicochemical; settings: for % reduced (68 hrs): 25° C., red fraction removed
Protocol: (§1) Functional assays 1. Reduction state of ORP100S was quantified using DTNB which reacts with free SH groups resulting in a yellow color change at 412 nm. Fifty microliters of 2.5 mM rhTrx was added to a 96-well plate, followed by 175 microliters of sample buffer and 25 microliters of 6 mM DTNB. After reactions were initiated by the addition of DTNB, change in kinetic absorbance at 412 nm due to DTNB reduction was monitored spectrophotometrically at 30° C. ORP100S concentration was determined by A280 (Nanodrop) using the extinction coefficient of human Trx-1 (7,000). The actual concentrations of free sulfhydryl groups were calculated based on the absorbance at 412 nm and the extinction coefficient of DTNB (14,150) in order to determine the reduction state as percentage of free sulfhydryl. […] 2. Percent of free monomer ORP100S in solution was determined using SEC. Samples were analyzed on a BioBasic S-300 250×4.6 column (Thermo Scientific) run on an Agilent 1100 HPLC system. The SEC-HPLC mobile phase buffer consisted of 40 mM ammonium acetate (pH 5.5), 2 mM EDTA and 450 mM NaCl. Low pH minimized dimerization while the 450 mM NaCl concentration improved resolution. The flow rate was 0.35 mL/min and absorbance was monitored at 280 nm. The length of each run was 20 minutes. The ORP100S monomer percentage was determined by integration of the area under the peak of the monomeric fraction divided by the total area under the curve of the chromatogram. 3. Disulfide bond reduction activity of ORP100S was quantified by assaying the reduction state of a small protein (human insulin) which in its heterodimeric form contains two intermolecular and one intramolecular disulfide, all three of which are known to be suitable thioredoxin substrates. Insulin reduction has classically been used to quantify thioredoxin activity by absorbance change following addition of NADPH and TrxR (Holmgren A., 1979, Thioredoxin catalyzes the reduction of insulin disulfides by dithiothreitol and dihydrolipoamide, J Biol Chem 254:9627-32). Such an approach is not suitable for monothiol C35S thioredoxins ORP-100 and ORP100S due to 1) the lack of cycling resulting from stoichiometric covalent linkage to the disulfide bond substrate and 2) the inability of NADPH and TrxR to reduce Cys32 of the oxidized monothiol Trx active site. Consequently, a new assay was developed based on the use of reverse-phase (RP) HPLC to monitor the rate of conversion of disulfide-bonded insulin heterodimers to monomeric forms. The two chains of human insulin have a total of six Cys residues which form three disulfide bonds in its mature structure. When ORP100S in the reduced form is incubated with dimeric insulin it reacts with these disulfide bonds to disrupt them, simultaneously forming covalent linkages to the ORP100S Cys32. […] The ORP100S samples were incubated with 10 mg/mL insulin for various time points (0-90 min) and the reactions were stopped by addition of iodacetic acid (IA) and trifluoroacetic acid (TFA). Relative activity at each time point was determined from changes in the area under the insulin heterodimer peak following separation over RP-HPLC (Agilent 1100) using an Intrada WP-RP 50×3 (Imtakt) column. Buffer A was 0.1% TFA and Buffer B was 0.1% TFA in acetonitrile. The gradient was […] in 5 min followed by 30 to 60% B in 45 min, then 60 to 80% B for an additional 5 min. The flow rate was 0.2 mL/min and absorbance was measured at 280 nm. In order to evaluate the change in the intact insulin molecule a time 0 baseline was first established using 1 M IA and 0.1% TFA without the addition of ORP100S. The area under the intact insulin heterodimer peak was then determined and set as equivalent to 100%. After the reaction with ORP100S the area of the intact insulin peak (corresponding to retention time) was measured. The percent reduction in intact insulin was then calculated from the decrease in the area following reduction divided by the area at time 0 multiplied by 100.

[2] = material purified with removal of the red fraction, 68.4 mg/ml
[3] = SEC-HPLC percent free monomer in solution; assay type: physicochemical
Protocol: as §1

[4] = check for precipitates by centrifugation; assay type: physicochemical; settings: 25° C., 0-232 hours
Protocol: The stability of ORP100S without the red fraction was evaluated at room temperature (25° C.) by SEC analysis as described in the preceding Examples. Protein solutions were prepared in PBS (saline) at concentrations of 70, 80, 90, 100 and 110 mg/ml corresponding to 6.0, 6.8, 7.7, 8.5 and 9.4 mM. These were incubated at room temperature for 0, 20, 44, 68, 140, 188 and 232 hours. At each time point tubes were centrifuged at 1000 RFC to check for precipitates and percent monomeric ORP100S determined by SEC. Additionally, at the 68 hr time point DTNB assays were performed to evaluate the degree of reduction.

[5] = 70 mg/mL in PBS, 25° C., red fraction removed
[6] = 80 mg/mL in PBS, 25° C., red fraction removed
[7] = 90 mg/mL in PBS, 25° C., red fraction removed
[8] = 100 mg/mL in PBS, 25° C., red fraction removed
[9] = 110 mg/mL in PBS, 25° C., red fraction removed

B1: ORP100S: thioredoxin with monothiol active site, Cys35 and non-active Cys 62, 69 and 73 substituted with serine (SEQ ID NO:29) (protein)
chain: MVKQIESKTAFQEALDAAGDKLVVVDFSATWCGPSKMIKPFFHSLSEKYSNVIFLEVDVDDSQDVASESEVKSMPTFQFFKKGQKVGEFSGANKEKLEATINELV
modifications: synthetic peptide motif
% reduced (68 hrs) ([1]; 70 mg/mL in PBS): 109% | % reduced (68 hrs) ([1]; 80 mg/mL in PBS): 87% | % reduced (68 hrs) ([1]; 90 mg/mL in PBS): 91% | % reduced (68 hrs) ([1]; 100 mg/mL in PBS): 91% | % reduced (68 hrs) ([1]; 110 mg/mL in PBS): 102% | DTNB % reduced ([1]; Ox:Red 0:100 mixture): 86% | DTNB % reduced ([1]; Ox:Red 25:75 mixture): 73% | DTNB % reduced ([1]; Ox:Red 50:50 mixture): 55% | DTNB % reduced ([1]; Ox:Red 75:25 mixture): 49% | DTNB % reduced ([1]; Ox:Red 100:0 mixture): 22% | Endotoxin level (Endosafe PTS) [2]: 0.002 EU/mg | % monomer (232 hrs) [3, 5]: 93% | % monomer (Time 0) [3, 5]: 93% | % monomer (232 hrs) [3, 6]: 93% | % monomer (Time 0) [3, 6]: 94% | % monomer (232 hrs) [3, 7]: 92% | % monomer (Time 0) [3, 7]: 94% | % monomer (232 hrs) [3, 8]: 93% | % monomer (Time 0) [3, 8]: 95% | % monomer (232 hrs) [3, 9]: 92% | % monomer (Time 0) [3, 9]: 95% | SEC % monomer ([3]; Ox:Red 0:100 mixture): 89% | SEC % monomer ([3]; Ox:Red 25:75 mixture): 70% | SEC % monomer ([3]; Ox:Red 50:50 mixture): 52% | SEC % monomer ([3]; Ox:Red 75:25 mixture): 36% | SEC % monomer ([3]; Ox:Red 100:0 mixture): 22% | decrease in percent monomer ([3]; time 0 to 232 hours, 25° C., PBS, 70-110 mg/ml, red fraction removed): 2% | Precipitate (all time points) ([4]; 70 mg/mL in PBS): None | Precipitate (all time points) ([4]; 80 mg/mL in PBS): None | Precipitate (all time points) ([4]; 90 mg/mL in PBS): None | Precipitate (all time points) ([4]; 100 mg/mL in PBS): None | Precipitate (all time points) ([4]; 110 mg/mL in PBS): None
